How the values were obtained:
Egr-1 Δ284-330 = Egr-1 Δ284-330 (Mus musculus, UniProt P08046 SEQ:1-533, del284-330); experiment: cell_activity; HeLa, enhanced activation
Protocol: A series of deletion derivatives, each retaining the zinc finger domain, was assayed for transcriptional activity by transient transfection in HeLa and NIH3T3 cells (see FIG. 9). NIH3T3 and HeLa cells were maintained in Dulbecco's modified Eagle's medium (DMEM) with 10% calf serum. Cells were seeded at 8 ×10^5 cells per 100 mm plate the day before transfection. The media was replaced 2 to 6 hours prior to transfection by calcium phosphate-mediated precipitation. Each precipitate included 1 μg of the internal reference pON260, a CMV driven β-galactosidase plasmid (67), or 3 μg of PCH110, a SV40 driven β-galactosidase plasmid (Pharmacia), and remained on the cells for 16–20 hours. Forty-eight hours after transfection, cell extracts were prepared by freeze thaw lysis in 0.25M Tris-HCl 7.8 with protease inhibitors (1mM PMSF, 1 μg/ml Pepstatin A, and […] Leupeptin).
Deletion analyses were performed as described in Example 10, above. […] The enhanced activation seen with deletion A284–330 is consistent with the loss of a region important for repression or negative regulation.

Egr-1 (full length) = Egr-1 (full length) (Mus musculus, UniProt P08046 SEQ:1-533); experiment: cell_activity; activation in NIH3T3; dependent on Egr-1 sites
Chain of Egr-1 (full length) (P08046 whole entry): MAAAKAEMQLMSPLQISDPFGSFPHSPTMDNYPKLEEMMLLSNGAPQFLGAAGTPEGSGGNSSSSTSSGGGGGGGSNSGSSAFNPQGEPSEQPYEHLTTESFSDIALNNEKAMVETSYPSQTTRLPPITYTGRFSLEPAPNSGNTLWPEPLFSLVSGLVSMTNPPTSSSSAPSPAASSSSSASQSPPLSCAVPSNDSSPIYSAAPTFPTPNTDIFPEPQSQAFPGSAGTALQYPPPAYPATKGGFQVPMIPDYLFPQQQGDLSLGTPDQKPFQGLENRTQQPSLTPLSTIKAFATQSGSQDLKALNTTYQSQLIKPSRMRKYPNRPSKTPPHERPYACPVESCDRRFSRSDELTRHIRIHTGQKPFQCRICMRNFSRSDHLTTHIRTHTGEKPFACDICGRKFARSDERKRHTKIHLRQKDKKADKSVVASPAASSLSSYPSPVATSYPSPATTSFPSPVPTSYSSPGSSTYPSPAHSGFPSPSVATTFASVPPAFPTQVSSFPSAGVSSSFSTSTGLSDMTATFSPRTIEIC

Chain of Egr-1 Δ284-330 (P08046 other isoform, or with tags, fused parts or gaps del284-330 | mutant): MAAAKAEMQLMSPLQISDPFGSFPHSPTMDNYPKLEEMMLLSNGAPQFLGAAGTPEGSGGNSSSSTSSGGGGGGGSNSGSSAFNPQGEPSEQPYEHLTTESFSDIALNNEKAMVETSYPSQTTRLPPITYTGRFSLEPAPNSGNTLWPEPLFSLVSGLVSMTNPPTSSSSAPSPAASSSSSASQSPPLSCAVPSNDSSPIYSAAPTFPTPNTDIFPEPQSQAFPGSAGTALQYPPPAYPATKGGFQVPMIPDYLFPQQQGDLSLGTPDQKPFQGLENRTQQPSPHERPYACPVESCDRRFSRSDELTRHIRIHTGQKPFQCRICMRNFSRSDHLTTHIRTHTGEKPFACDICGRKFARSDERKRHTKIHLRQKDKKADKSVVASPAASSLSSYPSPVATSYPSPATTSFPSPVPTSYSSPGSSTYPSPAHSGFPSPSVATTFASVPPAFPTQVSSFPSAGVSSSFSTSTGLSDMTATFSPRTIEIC

B1: EBS1^3 foscat (3 Egr-1 sites in front of minimal c-fos promoter) (dsDNA)
DNA 1: CGCCCCCGC
DNA 2: GCGGGGGCG
**Q.** For B1, which activity (Egr-1 Δ284-330) is on record?
**A.** ~5 fold of wild type

**Q.** What about the activity (Egr-1 (full length)) of the same binder?
**A.** 10 fold
